# From the supplement of paper PMC7877785
# ± gives the uncertainty stated by the source.
# Test: self-splicing fitness, log relative to wild type (ln ratio); higher = more splicing; Tetrahymena group I intron in knt gene, E. coli kanamycin selection, DiMSum; sequences stand for … in CUCUCU…GGAGGGAAAAGUUAUCAGGCAUGCACCUGGUAGCUAGUCUUUAAACCAAUAGAUUGCAUCGGUUUAAAAGGCAAGACCGUCAAAUUGCGGGAAAGGGGUCAACAGCCGUUCAGUACCAAGUCUCAGGGGAAACUUUGAGAUGGCCUUGCAAAGGGUAUGGUAAUAAGCUGACGGACAUGGUCCUAACCACGCAGCCAAGUCCUAAGUCAACAGAUCUUCUGUUGAUAUGGAUGCAGUUCACAGACUAAAUGUCGGUCGGGGAAGAUGUAUUCUUCUCAUAAGAUAUAGUCGGACCUCUCCUUAAUGGGAGCUAGCGGAUGAAGUGAUGCAACACUGGAGCCGCUGGGAACUAAUUUGUAUGCGAAAGUAUAUUGAUUAGUUUUGGAGUACUCGUGGUCG
# Procedure, shortened: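 DiMSum derived fitness as the error-weighted combination of fold changes across replicates, kanamycin versus no kanamycin, normalised to wild type. E. coli BL21(DE3) held the library, which randomised all eight P1ex-region intron nucleotides within the knt kanamycin-resistance gene on pET-22b(+). Six replicate transformations grew overnight at 37°C or 30°C on LB agar with or without 25 μg/mL kanamycin, also containing 100 μg/mL carbenicillin, 50 μM IPTG and 0.2% rhamnose, and pooled colonies were amplicon-sequenced on an Illumina HiSeq 2500.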
Sequence,self-splicing fitness (ln) (30 °C),self-splicing fitness (ln) (37 °C)
ACCCAGCAAUAUUACGUCCG,-3.83 ± 0.22,-0.701 ± 0.14
ACCGAGCAAUAUUACGAAUA,-3.02 ± 0.32,-2.41 ± 0.2
ACCGAGCAAUAUUACGACAU,-2.219 ± 0.015,-1.3 ± 0.033
ACCGAGCAAUAUUACGCAAA,-3.62 ± 0.24,-3.11 ± 0.24
ACCGAGCAAUAUUACGCAAG,-3.36 ± 0.17,-2.35 ± 0.18
ACCGAGCAAUAUUACGCAUU,-3.91 ± 0.17,-1.78 ± 0.12
ACCGAGCAAUAUUACGCGAG,-2.75 ± 0.19,-2.06 ± 0.15
ACCGAGCAAUAUUACGCUAC,-3.58 ± 0.19,-2.86 ± 0.24
ACCGAGCAAUAUUACGCUUA,-1.56 ± 0.14,-1.63 ± 0.17
ACCGAGCAAUAUUACGCUUU,-3.06 ± 0.28,-1.56 ± 0.15
ACCGAGCAAUAUUACGGACA,-1.25 ± 0.15,-0.523 ± 0.15
ACCGAGCAAUAUUACGGAUG,-2.12 ± 0.12,-1.85 ± 0.098
ACCGAGCAAUAUUACGGCAA,-1.19 ± 0.12,-1.48 ± 0.12
ACCGAGCAAUAUUACGGUUU,-3.42 ± 0.14,-2.35 ± 0.18
ACCGAGCAAUAUUACGUAAC,-4.02 ± 0.32,-2.88 ± 0.35
ACCGAGCAAUAUUACGUAGA,-4.48 ± 0.29,-2.69 ± 0.18
ACCGAGCAAUAUUACGUCAU,-5.01 ± 0.34,-2.68 ± 0.14
ACCGAGCAAUAUUACGUCUC,-3.22 ± 0.32,-2.77 ± 0.48
ACCGAGCAAUAUUACGUCUU,-2.91 ± 0.12,-2.22 ± 0.13
ACCGAGCAAUAUUACGUGCU,-3.32 ± 0.25,-2.49 ± 0.27
ACCGAGCAAUAUUACGUUUU,-3.3 ± 0.15,-2.59 ± 0.15
ACCUAGCAAUAUUACGAAAC,-2.68 ± 0.15,-2.31 ± 0.19
ACCUAGCAAUAUUACGAGAA,-2.97 ± 0.35,-2.29 ± 0.31
ACCUAGCAAUAUUACGAGAG,-2.34 ± 0.13,-0.462 ± 0.08

Sequence,self-splicing fitness (ln) (30 °C),self-splicing fitness (ln) (37 °C)
ACCUAGCAAUAUUACGAUUA,-2.05 ± 0.15,-1.51 ± 0.12
ACCUAGCAAUAUUACGCAUG,-2.27 ± 0.15,-1.42 ± 0.14
ACCUAGCAAUAUUACGCCGA,-2.23 ± 0.13,-1.01 ± 0.13
ACCUAGCAAUAUUACGCCUU,-1.43 ± 0.098,0.204 ± 0.12
ACCUAGCAAUAUUACGCGUG,-0.901 ± 0.077,-0.11 ± 0.1
ACCUAGCAAUAUUACGCUAG,-3.86 ± 0.25,-2.79 ± 0.28
ACCUAGCAAUAUUACGCUGA,-1.59 ± 0.082,-0.127 ± 0.09
ACCUAGCAAUAUUACGGAGG,-2.4 ± 0.14,-2.16 ± 0.21
ACCUAGCAAUAUUACGGGCC,-2.34 ± 0.18,-0.63 ± 0.16
ACCUAGCAAUAUUACGUACG,-2.46 ± 0.16,-1.02 ± 0.14
ACCUAGCAAUAUUACGUCUA,-2.44 ± 0.21,-2.04 ± 0.25
ACCUAGCAAUAUUACGUGCG,-1.5 ± 0.069,-0.773 ± 0.077
ACCUAGCAAUAUUACGUGUC,-4.29 ± 0.29,-2.24 ± 0.17
ACCUAGCAAUAUUACGUUUG,-2.6 ± 0.08,-2.03 ± 0.11
ACGAAGCAAUAUUACGAACC,-1.75 ± 0.14,-0.895 ± 0.19
ACGAAGCAAUAUUACGAAUU,-3.63 ± 0.17,-2.37 ± 0.15
ACGAAGCAAUAUUACGACCC,-0.88 ± 0.22,0.121 ± 0.26
ACGAAGCAAUAUUACGACCG,-0.458 ± 0.12,0.219 ± 0.14
ACGAAGCAAUAUUACGACGC,-0.651 ± 0.18,-0.221 ± 0.16
ACGAAGCAAUAUUACGAGAG,-3.39 ± 0.28,-2.53 ± 0.22
ACGAAGCAAUAUUACGAGGU,-3.96 ± 0.22,-3.57 ± 0.22
ACGAAGCAAUAUUACGAUAC,-3.68 ± 0.2,-2.2 ± 0.22
ACGAAGCAAUAUUACGAUUC,,-2.8 ± 0.33
ACGAAGCAAUAUUACGCAUA,-1.44 ± 0.08,-0.782 ± 0.072
